Measurements published in patent US20050026157, “Use of chimeric nucleases to stimulate gene targeting” (published 2005).

Legend:
[1] = test system: HBGZF1 chimeric nuclease (synthetic); experiment: cell_activity; settings: with ZIF-L3-Fn on hybrid target; no significant stimulation alone
[2] = test system: QQR-L18-Fn chimeric nuclease (QQR zinc finger triplet, 18 aa linker, FokI nuclease domain) (synthetic); experiment: cell_activity; settings: homodimer, 293 cells
[3] = test system: GFP-CN1 chimeric nuclease (synthetic); experiment: cell_activity; settings: paired with GFP-CN2, 293 cells
[4] = test system: CD8CN2 chimeric nuclease (synthetic); experiment: cell_activity; settings: paired with CD8CN1; 5% without nucleases
[5] = test system: QQR-L0-Fn chimeric nuclease (QQR zinc finger triplet, no linker, FokI nuclease domain) (synthetic); experiment: cell_activity
[6] = test system: HCGCZF2 chimeric nuclease (synthetic); experiment: cell_activity; settings: with ZIF-L3-Fn on hybrid target; no significant stimulation alone
[7] = target: ZIF-L3-Fn chimeric nuclease (Zif268 zinc fingers, 3 aa linker, FokI nuclease domain) (UniProt P08046); experiment: cell_activity; settings: QQRZIF6 target, heterodimer with QQR-L0-Fn; no significant stimulation alone; FIG. 3A prints Zif site as GCGTGGTCG
Sequence of ZIF-L3-Fn chimeric nuclease (Zif268 zinc fingers, 3 aa linker, FokI nuclease domain) (P08046 whole entry, change not shown, the tested form may be a part): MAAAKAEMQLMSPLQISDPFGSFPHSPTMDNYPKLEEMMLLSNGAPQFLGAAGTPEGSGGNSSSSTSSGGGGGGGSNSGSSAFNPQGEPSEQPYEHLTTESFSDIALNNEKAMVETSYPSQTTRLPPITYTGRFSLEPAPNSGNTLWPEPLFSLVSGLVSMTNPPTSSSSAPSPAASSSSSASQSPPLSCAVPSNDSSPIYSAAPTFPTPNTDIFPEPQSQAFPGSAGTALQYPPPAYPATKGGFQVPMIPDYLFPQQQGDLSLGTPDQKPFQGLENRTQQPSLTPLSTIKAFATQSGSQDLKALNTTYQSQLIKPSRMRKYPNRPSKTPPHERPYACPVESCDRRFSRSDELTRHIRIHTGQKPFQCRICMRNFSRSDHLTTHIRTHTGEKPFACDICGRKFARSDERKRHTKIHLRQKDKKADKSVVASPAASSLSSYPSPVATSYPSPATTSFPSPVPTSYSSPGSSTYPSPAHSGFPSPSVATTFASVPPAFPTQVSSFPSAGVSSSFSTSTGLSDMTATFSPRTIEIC

[8] = test system: GFP-CN2 chimeric nuclease (synthetic); experiment: cell_activity; settings: paired with GFP-CN1, 293 cells
[9] = test system: HBGZF4 chimeric nuclease (synthetic); experiment: cell_activity; settings: with ZIF-L3-Fn on hybrid target; ~30 fold alone
[10] = test system: CD8CN1 chimeric nuclease (synthetic); experiment: cell_activity; settings: paired with CD8CN2; 5% without nucleases
[11] = target: T1, I-SceI (UniProt P03882 P03882:1-235); experiment: cell_activity; homing endonuclease, A658 target, 293 cells
T1 sequence: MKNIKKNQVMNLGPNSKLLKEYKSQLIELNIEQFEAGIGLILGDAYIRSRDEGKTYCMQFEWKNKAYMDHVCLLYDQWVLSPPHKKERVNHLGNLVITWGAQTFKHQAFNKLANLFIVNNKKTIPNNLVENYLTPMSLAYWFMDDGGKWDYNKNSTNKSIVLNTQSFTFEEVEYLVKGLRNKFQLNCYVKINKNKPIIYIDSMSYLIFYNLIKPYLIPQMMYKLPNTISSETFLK
From the text: FIG. 1A illustrates a GFP gene targeting system. The artificial gene target (A658) consisted of a GFP gene mutated by a 35 basepair insertion which includes a stop codon and a recognition site for the I-SceI endonuclease (Sce) (5′ […] 3′) at basepair 327 of the coding sequence. The GFP gene was driven by a hybrid cytomegalovirus enhancer/chicken β3-actin promoter (“CMV/CBA” or “CBA”). The GFP gene was part of bicistronic transcript in which an internal ribosomal entry site (“IRES”) allowed translation of the human CD8α gene (“CD8”). The bicistronic message contained a Woodchuck post-trancriptional regulatory element (“WPRE”) to increase messenger RNA levels (Zufferey et al., 1999, J Virol, 73:2886-92). Finally, the locus contained a gene with the phosphoglycerate kinase promoter (“PGK”) driving the neomycin phosphotransferase gene (NEO) to allow selection by the antibiotic G418. […] Gene targeting was measured by transfecting 293/A658 cells with RS2100 with or without a Sce expression plasmid along with a control plasmid (pON405) to determine the transfection efficiency. […] The cells were then incubated for 3 days and the percentage of GFP positive cells measured by flow cytometry using a FACScan (BD Biosciences, San Jose, Calif.). The gene targeting rate was determined by normalizing the measured percentage of GFP positive cells to the transfection efficiency.

In the case of “GAGGTTGCT (double strand) [HBGZF1 half-site]”, the activity (fold stimulation of gene targeting) [1] is reported as > 4000.

In the case of “GGGGAAGAA (double strand) [QQR8 target (inverted QQR sites, 8 bp spacer)]”, the activity (fold stimulation of gene targeting) [2] is reported as 260.

In the case of “GAAGATGGT (double strand) [GFP-CN1 half-site]”, the activity (fold stimulation of gene targeting) [3] is reported as 1000.

“GTCGCAGCC (double strand) [CD8CN2 half-site]” was tested, and the activity (% CD8 negative cells) [4] was > 20.

In the case of “GGGGAAGAA (double strand) [QQR6 target (inverted QQR sites, 6 bp spacer)]”, the activity (fold stimulation of gene targeting) ([5]; homodimer, 293 cells, as efficient as I-SceI) is reported as > 2000 and the activity (fold stimulation of gene targeting) [2] is reported as 17.

With “GGGGGAGCA (double strand) [HCGCZF2 half-site]” the activity (fold stimulation of gene targeting) [6] was > 200.

For “GGGGAAGAA (double strand) [QQR half-site in QQRZIF6]”, the activity (fold stimulation of gene targeting) ([5]; QQRZIF6 target, heterodimer with ZIF-L3-Fn, no significant stimulation alone) was > 5000.

“GCGTGGGCG (double strand) [Zif268 half-site]” was tested, and the activity (fold stimulation of gene targeting) [7] was > 5000.

“GACGACGGC (double strand) [GFP-CN2 half-site]” gave an activity (fold stimulation of gene targeting) [8] of 1000.

“GGCAAGGTG (double strand) [HBGZF4 half-site]” showed an activity (fold stimulation of gene targeting) [9] of 60.

In the case of “GTGGGCGCC (double strand) [CD8CN1 half-site]”, the activity (% CD8 negative cells) [10] is reported as > 20.

B1: I-SceI site in A658 (dsDNA)
DNA 1: TAGGGATAACAGGGTAAT
DNA 2: ATTACCCTGTTATCCCTA
With B1 the activity [11] was > 2000 fold stimulation of gene targeting.
